# Data reported in US8846861 (dated 2014).
# Non-standard residues stand in square brackets, D forms with d. No end group written: not given here. ANA = not defined here
# T1: carcino-embryonic antigen (CEA) (human, UniProt P06731 35-685)
# T1 construct: whole, on cells; The legends print the cell line as CCI-229; also called surface protein CEA; CEA surface antigen
# T1 sequence (looked up): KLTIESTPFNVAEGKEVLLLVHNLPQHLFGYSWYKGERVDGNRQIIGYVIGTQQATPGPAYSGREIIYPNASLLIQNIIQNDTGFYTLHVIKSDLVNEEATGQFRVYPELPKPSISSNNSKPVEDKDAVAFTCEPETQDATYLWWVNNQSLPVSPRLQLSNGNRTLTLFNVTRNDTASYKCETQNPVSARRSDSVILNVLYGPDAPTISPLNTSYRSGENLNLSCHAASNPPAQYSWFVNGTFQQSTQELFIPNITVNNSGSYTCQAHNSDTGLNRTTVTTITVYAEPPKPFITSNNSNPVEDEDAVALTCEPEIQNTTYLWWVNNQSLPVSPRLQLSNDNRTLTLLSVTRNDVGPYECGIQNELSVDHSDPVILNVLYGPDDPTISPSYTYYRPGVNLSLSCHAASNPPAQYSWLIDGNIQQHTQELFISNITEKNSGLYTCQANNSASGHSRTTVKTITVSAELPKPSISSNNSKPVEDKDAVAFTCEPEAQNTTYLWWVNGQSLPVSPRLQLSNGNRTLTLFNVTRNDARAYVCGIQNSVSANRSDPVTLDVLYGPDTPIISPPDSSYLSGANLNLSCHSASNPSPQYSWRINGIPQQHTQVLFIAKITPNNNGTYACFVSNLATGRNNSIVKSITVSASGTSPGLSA
# What was measured:
# [1] = target: T1, carcino-embryonic antigen (CEA); assay: flow cytometry on CCL 229 (LoVo) CEA expressing cells
# Method: A study to look at antibodies generated in sheep to CEA and the ScFv anti CEA-CPG2 Fusion protein was carried out with analysis using flow cytometry. Measurement by Flow Cytometry of Binding Capability of scFv Anti-CEA-CPG2 Using CEA Expressing Cells. Materials: Cells Lines: CRL 1573—control cell line, CCL 229 (LoVo)—CEA expressing cell line Antibodies/Conjugates: CPG2-PE (Phycoerythrin), CPG2 100 U/ml 1:100 dilution of 100 U conjugated ScFv anti-CEA-CPG2-PE UCL, 40-50 U/ml, 0.71 mg/ml protein 2.5 µg/ml in buffer containing BSA Sheep anti-CEA-PE, CF 1110-PE; Stock at 670 µg/ml. Mouse anti human CEA UCL at 3.9 mg/ml 2.5 µg/ml in buffer containing BSA Goat anti-Mouse-PE Southern Biotech 1050-09 L2806-XH69Z kappa chain specific at 0.25 mg/ml used at 1 µg/ml 4.5 ml polystyrene tubes, PBS azide, BSA, PBS+0.5% Formaldehyde (Polysciences #18814), Propidium Iodine (Orpegen at 100 mg/ml) Centrifuge Eppendorf 5810R set to 250G, 5 mins, 4° C. Coulter XL flow cytometer Method: Cultured cells were both used at 2×10^5 cells per tube, cells in tubes were prepared to contain the following 1. Nothing added, auto fluorescence tested 2. Propidium Iodine at a final concentration of 10 µg/ml 3. CPG2-PE 4. ScFv anti CEA-CPG2-PE 5. Sheep anti CEA-PE 6. Mouse anti CEA/anti Mouse-PE Cells were spun down and 100 µl of antibody solution was added to respective tube. […]
# [2] = target: ScFv anti CEA-CPG2 fusion protein (Pseudomonas, UniProt P06621 23-415); assay: cell-based or functional assay
"IC50, inhibition assay of CPG2 activity (methotrexate hydrolysis) [2] [µM]",Binder,binding result [1]
,"CPG2-PE (Phycoerythrin) (enzyme, Pseudomonas, UniProt P06621 23-415, looked up, conjugated to phycoerythrin (PE), PE-labelled enzyme without the scFv, used as a control in flow cytometry; also called CPG2 control; carboxypeptidase G2) ALAQKRDNVLFQAATDEQPAVIKTLEKLVNIETGTGDAEGIAAAGNFLEAELKNLGFTVTRSKSAGLVVGDNIVGKIKGRGGKNLLLMSHMDTVYLKGILAKAPFRVEGDKAYGPGIADDKGGNAVILHTLKLLKEYGVRDYGTITVLFNTDEEKGSFGSRDLIQEEAKLADYVLSFEPTSAGDEKLSLGTSGIAYVQVNITGKASHAGAAPELGVNALVEASDLVLRTMNIDDKAKNLRFNWTIAKAGNVSNIIPASATLNADVRYARNEDFDAAMKTLEERAQQKKLPEADVKVIVTRGRPAFNAGEGGKKLVDKAVAYYKEAGGTLGVEERTGGGTDAAYAALSGKPVIESLGLPGFGYHSDKAEYVDISAIPRRLYMAARLIMDLGAGK",no binding (tested: CPG2 100 U/ml 1:100 dilution)
88.5,[ANA]-Glu (reading uncertain; also: printed as ANA-Glu) [CP006],
